Measurements: FireProtDB (doi:10.1021/bi00015a036)

B1: Barstar, P11540 (parent)
chain: MKKAVINGEQIRSISDLHQTLKKELALPEYYGENLDALWDCLTGWVEYPLVLEWRQFEQSKQLTENGAESVLQVFREAKAEGCDITIILS

Variants of: B1
Conditions: Bacillus amyloliquefaciens; pH 7; Thermal; DSC; PIPES 50 mM; reversible: yes (~80%); structure 1BTA; whole UniProt chain shown
In the case of C41A C83A, the Tm is reported as 74 °C and the “unfolding enthalpy (calorimetric)” value is reported as 63.4 kcal/mol.

Same assay, conditions: Bacillus amyloliquefaciens; pH 10; Thermal; DSC; CAPS 50 mM; reversible: yes (~80%); structure 1BTA; whole UniProt chain shown
In the case of C41A C83A, the Tm is reported as 68.6 °C and the “unfolding enthalpy (calorimetric)” value is reported as 58.6 kcal/mol.

Same assay, conditions: Bacillus amyloliquefaciens; pH 10.3; Thermal; DSC; CAPS 50 mM; reversible: yes (~80%); structure 1BTA; whole UniProt chain shown
In the case of C41A C83A, the Tm is reported as 67 °C and the “unfolding enthalpy (calorimetric)” value is reported as 57.4 kcal/mol.

Same assay, conditions: Bacillus amyloliquefaciens; pH 10.5; Thermal; DSC; CAPS 50 mM; reversible: yes (~80%); structure 1BTA; whole UniProt chain shown
For C41A C83A, the Tm was 65.7 °C and the “unfolding enthalpy (calorimetric)” value was 56.2 kcal/mol.
